Reference: USRE47770 (dated 2019)

T1: Affinity-purified human CD46 from LS174T cells (human, UniProt P15529 35-392, limits assumed)
T1 construct: Coupled (640 RU) to CM5 chips for the BIACORE work; also called purified CD46; membrane cofactor protein CD46
T1 sequence (looked up): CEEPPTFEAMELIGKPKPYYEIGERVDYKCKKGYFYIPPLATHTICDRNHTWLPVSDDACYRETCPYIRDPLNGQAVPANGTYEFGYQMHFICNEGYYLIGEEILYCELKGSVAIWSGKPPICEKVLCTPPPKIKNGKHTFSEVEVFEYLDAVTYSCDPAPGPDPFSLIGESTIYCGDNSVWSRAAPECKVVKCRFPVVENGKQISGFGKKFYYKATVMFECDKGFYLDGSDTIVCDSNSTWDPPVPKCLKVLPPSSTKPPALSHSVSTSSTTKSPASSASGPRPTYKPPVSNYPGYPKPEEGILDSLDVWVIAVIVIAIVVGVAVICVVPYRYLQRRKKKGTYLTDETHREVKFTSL

T2: EpCAM on CHO (dhfr-) cells transfected with EpCAM cDNA (UniProt P16422 24-314, limits assumed)
T2 construct: whole, on cells; also called EP-CAM homotypic adhesion molecule; EpCAM-transfected cells
T2 sequence (looked up): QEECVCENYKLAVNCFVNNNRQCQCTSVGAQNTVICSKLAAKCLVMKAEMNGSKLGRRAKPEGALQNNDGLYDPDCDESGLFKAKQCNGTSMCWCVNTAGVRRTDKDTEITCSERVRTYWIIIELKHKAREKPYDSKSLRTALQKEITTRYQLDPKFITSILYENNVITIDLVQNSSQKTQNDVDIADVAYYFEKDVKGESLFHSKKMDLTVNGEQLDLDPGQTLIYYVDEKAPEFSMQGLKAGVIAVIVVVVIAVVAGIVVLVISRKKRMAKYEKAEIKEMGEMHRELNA

T3: CD46 on cells (human colon carcinoma LS174T cells; CHO (dhfr-) cells transfected with CD46 cDNA) (human, UniProt P15529 35-392)
T3 construct: whole, on cells; also called CD46 transfectants; cofactor protein CD46
T3 sequence (looked up): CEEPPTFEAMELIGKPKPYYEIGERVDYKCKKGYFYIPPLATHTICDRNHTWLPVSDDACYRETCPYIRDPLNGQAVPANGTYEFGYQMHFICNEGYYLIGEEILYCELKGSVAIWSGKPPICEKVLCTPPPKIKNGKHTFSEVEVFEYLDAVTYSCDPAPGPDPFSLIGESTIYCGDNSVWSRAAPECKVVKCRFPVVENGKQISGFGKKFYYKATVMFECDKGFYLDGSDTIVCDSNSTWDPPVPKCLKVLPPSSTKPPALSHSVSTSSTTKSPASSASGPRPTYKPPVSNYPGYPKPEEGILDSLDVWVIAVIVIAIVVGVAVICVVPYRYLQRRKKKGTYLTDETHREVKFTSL


Assays:
[1] = molecular target: T1, Affinity-purified human CD46 from …; assay: SPR (BIACORE 3000, 37° C.), purified CD46 coupled to CM5 chip, IgG in solution
[2] = molecular target: T2, EpCAM on CHO (dhfr-) cells transfected …; assay: FACS on CHO cells transfected with EpCAM, CD46 or CD38
[3] = molecular target: T4, CD38 on CHO (dhfr-) cells transfected with CD38 cDNA (UniProt P28907 1-300, limits assumed); assay: as above
T4 construct: whole, on cells; also called control antigen CD38; negative control (CD38)

[4] = molecular target: T3, CD46 on cells (human colon carcinoma …); assay: as above

Row | Binder | Kd [1] | binding result [2] | binding result [3] | binding result [4]
1 | 02-237 IgG (antibody, V domains shown, amino acid residue 1 is a pyroglutamic acid (remark to Table III), Tested as human IgG1 (constant domains from pCRU-K01); The N-terminus of its light chain differs slightly from that of UBS54/K53 because of the cloning strategy) VH: QVQLVQSGAEVKKPGASVKVSCKASGYTFTSYGISWVRQAPGQGLEWMGWISAYNGNTNYAQKLQGRVTMTTDTSTSTAYMELRSLRSDDTAVYYCARGFPRTSFDSWGQGTLVTVSS VL: not shown | 22 nM | no binding (tested: 20 µg IgG1/ml) | no binding (tested: 20 µg IgG1/ml) | 
2 | K53 IgG (antibody, V domains shown, amino acid residue 1 is a pyroglutamic acid (remark to Table III), also called clone K53; anti-CD46 clone K53) VH: QVQLVQSGAEVKKPGASVKVSCKASGYTFTSYGISWVRQAPGQGLEWMGWISAYNGNTNYAQKLQGRVTMTTDTSTSTAYMELRSLRSDDTAVYYCARGMMRGVFDYWGQGTLVTVST VL: not shown | 910 nM | no binding (tested: 20 µg IgG1/ml) | no binding (tested: 20 µg IgG1/ml) | 
3 | UBS54 IgG (antibody, V domains shown, amino acid residue 1 is a pyroglutamic acid (remark to Table III), Tested as full human IgG1 with kappa light chain; also called anti-EpCAM clone UBS54; encoded by pUBS3000Neo) VH: QVQLVQSGAEVKKPGSSVRVSCKASGGTFSSYAISWVRQAPGQGLEWMGGIIPIFGTANYAQKFQGRVTITADESTSTAYMELSSLRSEDTAVYYCARDPFLHYWGQGTLVTVST VL: not shown |  |  | no binding (tested: 20 µg IgG1/ml) | no binding (tested: 20 µg IgG1/ml)
